Experimental data: IntAct's records for PubMed 31324769

Columns and labels:
mon2_human MON2 = mon2_human MON2 (UniProt Q7Z3U7)
klc2_human KLC2 = klc2_human KLC2 (UniProt Q9H0B6)
klc2_human KLC2, sequence (Q9H0B6 whole entry): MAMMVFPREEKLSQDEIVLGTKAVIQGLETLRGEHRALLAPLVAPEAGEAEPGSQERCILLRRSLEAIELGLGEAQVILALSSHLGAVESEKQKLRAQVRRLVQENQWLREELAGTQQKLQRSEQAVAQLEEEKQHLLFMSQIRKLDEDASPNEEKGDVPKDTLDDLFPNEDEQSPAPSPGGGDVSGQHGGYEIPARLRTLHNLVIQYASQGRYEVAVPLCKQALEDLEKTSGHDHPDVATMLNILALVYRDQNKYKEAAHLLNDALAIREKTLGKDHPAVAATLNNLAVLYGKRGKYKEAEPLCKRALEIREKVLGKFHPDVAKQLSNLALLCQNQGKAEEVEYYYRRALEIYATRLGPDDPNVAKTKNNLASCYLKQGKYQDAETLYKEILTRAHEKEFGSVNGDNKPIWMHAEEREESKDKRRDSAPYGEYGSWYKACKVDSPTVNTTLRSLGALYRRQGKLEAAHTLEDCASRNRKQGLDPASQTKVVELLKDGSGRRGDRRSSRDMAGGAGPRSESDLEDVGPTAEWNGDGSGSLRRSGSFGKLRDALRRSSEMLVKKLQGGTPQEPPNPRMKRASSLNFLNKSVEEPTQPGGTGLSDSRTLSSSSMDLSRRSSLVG

mon2_human MON2, sequence (Q7Z3U7 whole entry): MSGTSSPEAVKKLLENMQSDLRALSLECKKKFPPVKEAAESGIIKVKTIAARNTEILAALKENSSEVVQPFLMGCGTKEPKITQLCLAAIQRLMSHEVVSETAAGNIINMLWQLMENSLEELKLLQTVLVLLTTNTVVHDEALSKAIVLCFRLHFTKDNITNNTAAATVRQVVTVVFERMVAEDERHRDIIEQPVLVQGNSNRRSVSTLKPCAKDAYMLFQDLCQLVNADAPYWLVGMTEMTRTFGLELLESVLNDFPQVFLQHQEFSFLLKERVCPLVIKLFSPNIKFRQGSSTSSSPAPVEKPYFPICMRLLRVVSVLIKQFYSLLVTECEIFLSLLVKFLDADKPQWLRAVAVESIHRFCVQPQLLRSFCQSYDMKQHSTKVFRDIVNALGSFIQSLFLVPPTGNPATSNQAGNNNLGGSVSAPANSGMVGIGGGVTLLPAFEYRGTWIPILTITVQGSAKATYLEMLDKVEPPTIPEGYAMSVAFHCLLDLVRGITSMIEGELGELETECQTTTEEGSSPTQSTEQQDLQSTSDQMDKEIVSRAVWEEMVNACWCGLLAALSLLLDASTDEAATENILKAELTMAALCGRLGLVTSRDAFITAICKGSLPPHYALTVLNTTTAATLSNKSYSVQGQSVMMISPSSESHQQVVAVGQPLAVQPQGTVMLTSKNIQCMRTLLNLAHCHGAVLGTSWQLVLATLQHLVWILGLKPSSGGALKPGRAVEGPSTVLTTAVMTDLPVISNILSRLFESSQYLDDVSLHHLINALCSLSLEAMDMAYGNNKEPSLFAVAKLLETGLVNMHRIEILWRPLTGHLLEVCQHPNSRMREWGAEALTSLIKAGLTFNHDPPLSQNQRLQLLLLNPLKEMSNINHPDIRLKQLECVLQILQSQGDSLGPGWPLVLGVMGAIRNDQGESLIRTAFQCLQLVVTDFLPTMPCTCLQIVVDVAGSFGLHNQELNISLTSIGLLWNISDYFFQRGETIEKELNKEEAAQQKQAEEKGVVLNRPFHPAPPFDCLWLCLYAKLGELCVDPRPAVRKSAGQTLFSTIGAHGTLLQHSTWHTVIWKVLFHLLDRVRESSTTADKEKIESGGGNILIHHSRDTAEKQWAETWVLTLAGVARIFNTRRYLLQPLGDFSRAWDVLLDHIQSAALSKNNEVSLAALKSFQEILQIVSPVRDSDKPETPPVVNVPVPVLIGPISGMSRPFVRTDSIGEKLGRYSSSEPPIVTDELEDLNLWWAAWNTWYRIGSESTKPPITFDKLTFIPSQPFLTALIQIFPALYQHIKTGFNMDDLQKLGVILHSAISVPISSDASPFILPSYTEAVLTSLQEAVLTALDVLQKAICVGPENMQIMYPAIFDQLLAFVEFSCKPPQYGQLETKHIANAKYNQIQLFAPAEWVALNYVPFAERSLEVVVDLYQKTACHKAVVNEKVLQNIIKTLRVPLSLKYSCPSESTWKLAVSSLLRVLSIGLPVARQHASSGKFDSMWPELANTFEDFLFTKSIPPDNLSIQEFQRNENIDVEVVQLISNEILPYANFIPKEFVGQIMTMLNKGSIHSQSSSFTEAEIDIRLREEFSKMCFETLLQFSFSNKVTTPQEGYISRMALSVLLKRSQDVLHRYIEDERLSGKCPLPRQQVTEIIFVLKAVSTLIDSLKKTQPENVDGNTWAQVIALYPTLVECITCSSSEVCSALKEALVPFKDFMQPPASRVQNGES

Substance	effect of a mutation on the interaction (mon2_human MON2)	effect of a mutation on the interaction (klc2_human KLC2)
Protein DOP1A (Homo sapiens), Q5JWR5 L2178A;K2179A;R2180A;L2181A	with no effect	
Protein DOP1A (Homo sapiens), Q5JWR5 W34A		disrupting interaction strength
Protein DOP1A (Homo sapiens), Q5JWR5 W186A		disrupting interaction strength
